Bridge positions count the residues as written; N and C are the ends. Square brackets hold non-standard residues; d marks the D form. Ends that are not written are not given here. Peptide text beside a SMILES is read from it. * marks the point of attachment. Benzoyl(4-NO2) = O=C(c1ccc([N+](=O)[O-])cc1)*; Pro(5R-Ph) = O=C(O)[C@@H]1CC[C@H](c2ccccc2)N1; d1Nal = N[C@H](Cc1cccc2ccccc12)C(=O)O; dBta = N[C@H](Cc1csc2ccccc12)C(=O)O; Cyclohexylacetyl = O=C(CC1CCCCC1)*; 2Naphthoyl = O=C(c1ccc2ccccc2c1)*; dCit = NC(=O)NCCC[C@@H](N)C(=O)O; dPen = CC(C)(S)[C@@H](N)C(=O)O; dNMeV = CN[C@@H](C(=O)O)C(C)C; Nicotinoyl = O=C(c1cccnc1)*; Pentanoyl = CCCCC(=O)*; X4 = O=C(c1ccc(Br)o1)*; βAla = NCCC(=O)O; Sar = CNCC(=O)O

The chains are these.
B1: LXW82 (peptide)
peptide: {Benzoyl(4-NO2)}-[dC]GRGD[dD][dV][dC]-NH2
modifications: disulfide 1-8
SMILES: CC(C)[C@H]1NC(=O)[C@@H](CC(=O)O)NC(=O)[C@H](CC(=O)O)NC(=O)CNC(=O)[C@H](CCCNC(=N)N)NC(=O)CNC(=O)[C@H](NC(=O)c2ccc([N+](=O)[O-])cc2)CSSC[C@H](C(N)=O)NC1=O
B2: LXW71 (peptide)
peptide: [dC]GRGD[dE][Pro(5R-Ph)][dC]-NH2
modifications: disulfide 1-8; N-terminus assumed
SMILES: N=C(N)NCCC[C@@H]1NC(=O)CNC(=O)[C@H](N)CSSC[C@H](C(N)=O)NC(=O)[C@@H]2CC[C@H](c3ccccc3)N2C(=O)[C@@H](CCC(=O)O)NC(=O)[C@H](CC(=O)O)NC(=O)CNC1=O
B3: LXW15 (peptide)
peptide: [dC][βAla]RGD[dD][dV][dC]-NH2
modifications: disulfide 1-8; N-terminus assumed
SMILES: CC(C)[C@H]1NC(=O)[C@@H](CC(=O)O)NC(=O)[C@H](CC(=O)O)NC(=O)CNC(=O)[C@H](CCCNC(=N)N)NC(=O)CCNC(=O)[C@H](N)CSSC[C@H](C(N)=O)NC1=O
B4: LXW19 (peptide)
peptide: [dPen]GRGD[dD][dV][dPen]-NH2
modifications: disulfide 1-8; N-terminus assumed
SMILES: CC(C)[C@H]1NC(=O)[C@@H](CC(=O)O)NC(=O)[C@H](CC(=O)O)NC(=O)CNC(=O)[C@H](CCCNC(=N)N)NC(=O)CNC(=O)[C@H](N)C(C)(C)SSC(C)(C)[C@H](C(N)=O)NC1=O
B5: LXW47 (peptide)
peptide: CGRGD[dD][d1Nal]C-NH2
modifications: disulfide 1-8; N-terminus assumed
SMILES: N=C(N)NCCC[C@@H]1NC(=O)CNC(=O)[C@@H](N)CSSC[C@@H](C(N)=O)NC(=O)[C@@H](Cc2cccc3ccccc23)NC(=O)[C@@H](CC(=O)O)NC(=O)[C@H](CC(=O)O)NC(=O)CNC1=O
notes: also called CGRGDd-DNal1-C
B6: LXW14 (peptide)
peptide: [dC][Sar]RGD[dD][dV][dC]-NH2
modifications: disulfide 1-8; N-terminus assumed
SMILES: CC(C)[C@H]1NC(=O)[C@@H](CC(=O)O)NC(=O)[C@H](CC(=O)O)NC(=O)CNC(=O)[C@H](CCCNC(=N)N)NC(=O)CN(C)C(=O)[C@H](N)CSSC[C@H](C(N)=O)NC1=O
B7: LXW13 (peptide)
peptide: [dC][dA]RGD[dD][dV][dC]-NH2
modifications: disulfide 1-8; N-terminus assumed
SMILES: CC(C)[C@H]1NC(=O)[C@@H](CC(=O)O)NC(=O)[C@H](CC(=O)O)NC(=O)CNC(=O)[C@H](CCCNC(=N)N)NC(=O)[C@@H](C)NC(=O)[C@H](N)CSSC[C@H](C(N)=O)NC1=O
B8: LXW73 (peptide)
peptide: [dC]GRGD[dCit][dBta][dC]-NH2
modifications: disulfide 1-8; N-terminus assumed
SMILES: N=C(N)NCCC[C@@H]1NC(=O)CNC(=O)[C@H](N)CSSC[C@H](C(N)=O)NC(=O)[C@@H](Cc2csc3ccccc23)NC(=O)[C@@H](CCCNC(N)=O)NC(=O)[C@H](CC(=O)O)NC(=O)CNC1=O
B9: LXW10 (peptide)
peptide: [dC]GRGD[dD][dV]C-NH2
modifications: disulfide 1-8; N-terminus assumed
SMILES: CC(C)[C@H]1NC(=O)[C@@H](CC(=O)O)NC(=O)[C@H](CC(=O)O)NC(=O)CNC(=O)[C@H](CCCNC(=N)N)NC(=O)CNC(=O)[C@H](N)CSSC[C@@H](C(N)=O)NC1=O
B10: LXW20 (peptide)
peptide: [dPen]GRGD[dD][dV][dC]-NH2
modifications: disulfide 1-8; N-terminus assumed
SMILES: CC(C)[C@H]1NC(=O)[C@@H](CC(=O)O)NC(=O)[C@H](CC(=O)O)NC(=O)CNC(=O)[C@H](CCCNC(=N)N)NC(=O)CNC(=O)[C@H](N)C(C)(C)SSC[C@H](C(N)=O)NC1=O
B11: LXW26 (peptide)
peptide: [dC]GRGD[dD][dI][dC]-NH2
modifications: disulfide 1-8; N-terminus assumed
SMILES: CC[C@@H](C)[C@H]1NC(=O)[C@@H](CC(=O)O)NC(=O)[C@H](CC(=O)O)NC(=O)CNC(=O)[C@H](CCCNC(=N)N)NC(=O)CNC(=O)[C@H](N)CSSC[C@H](C(N)=O)NC1=O
B12: LXW77 (peptide)
peptide: Pentanoyl-[dC]GRGD[dD][dV][dC]-NH2
modifications: disulfide 1-8
SMILES: CCCCC(=O)N[C@@H]1CSSC[C@H](C(N)=O)NC(=O)[C@@H](C(C)C)NC(=O)[C@@H](CC(=O)O)NC(=O)[C@H](CC(=O)O)NC(=O)CNC(=O)[C@H](CCCNC(=N)N)NC(=O)CNC1=O
B13: LXW9 (peptide)
peptide: CGRGD[dD][dV][dC]-NH2
modifications: disulfide 1-8; N-terminus assumed
SMILES: CC(C)[C@H]1NC(=O)[C@@H](CC(=O)O)NC(=O)[C@H](CC(=O)O)NC(=O)CNC(=O)[C@H](CCCNC(=N)N)NC(=O)CNC(=O)[C@@H](N)CSSC[C@H](C(N)=O)NC1=O
B14: LXW21 (peptide)
peptide: [dC]GRGD[dD][dV][dPen]-NH2
modifications: disulfide 1-8; N-terminus assumed
SMILES: CC(C)[C@H]1NC(=O)[C@@H](CC(=O)O)NC(=O)[C@H](CC(=O)O)NC(=O)CNC(=O)[C@H](CCCNC(=N)N)NC(=O)CNC(=O)[C@H](N)CSSC(C)(C)[C@H](C(N)=O)NC1=O
B15: LXW78 (peptide)
peptide: Cyclohexylacetyl-[dC]GRGD[dD][dV][dC]-NH2
modifications: disulfide 1-8
SMILES: CC(C)[C@H]1NC(=O)[C@@H](CC(=O)O)NC(=O)[C@H](CC(=O)O)NC(=O)CNC(=O)[C@H](CCCNC(=N)N)NC(=O)CNC(=O)[C@H](NC(=O)CC2CCCCC2)CSSC[C@H](C(N)=O)NC1=O
B16: LXW12 (peptide)
peptide: Ac-[dC]GRGD[dD][dV][dC]-NH2
modifications: disulfide 1-8
SMILES: CC(=O)N[C@@H]1CSSC[C@H](C(N)=O)NC(=O)[C@@H](C(C)C)NC(=O)[C@@H](CC(=O)O)NC(=O)[C@H](CC(=O)O)NC(=O)CNC(=O)[C@H](CCCNC(=N)N)NC(=O)CNC1=O
B17: LXW22 (peptide)
peptide: [dC]GRGD[dD][dNMeV][dC]-NH2
modifications: disulfide 1-8; N-terminus assumed
SMILES: CC(C)[C@@H]1C(=O)N[C@@H](C(N)=O)CSSC[C@@H](N)C(=O)NCC(=O)N[C@@H](CCCNC(=N)N)C(=O)NCC(=O)N[C@@H](CC(=O)O)C(=O)N[C@H](CC(=O)O)C(=O)N1C

T1 sequence (P06756 31-1048, chain 1 of 2): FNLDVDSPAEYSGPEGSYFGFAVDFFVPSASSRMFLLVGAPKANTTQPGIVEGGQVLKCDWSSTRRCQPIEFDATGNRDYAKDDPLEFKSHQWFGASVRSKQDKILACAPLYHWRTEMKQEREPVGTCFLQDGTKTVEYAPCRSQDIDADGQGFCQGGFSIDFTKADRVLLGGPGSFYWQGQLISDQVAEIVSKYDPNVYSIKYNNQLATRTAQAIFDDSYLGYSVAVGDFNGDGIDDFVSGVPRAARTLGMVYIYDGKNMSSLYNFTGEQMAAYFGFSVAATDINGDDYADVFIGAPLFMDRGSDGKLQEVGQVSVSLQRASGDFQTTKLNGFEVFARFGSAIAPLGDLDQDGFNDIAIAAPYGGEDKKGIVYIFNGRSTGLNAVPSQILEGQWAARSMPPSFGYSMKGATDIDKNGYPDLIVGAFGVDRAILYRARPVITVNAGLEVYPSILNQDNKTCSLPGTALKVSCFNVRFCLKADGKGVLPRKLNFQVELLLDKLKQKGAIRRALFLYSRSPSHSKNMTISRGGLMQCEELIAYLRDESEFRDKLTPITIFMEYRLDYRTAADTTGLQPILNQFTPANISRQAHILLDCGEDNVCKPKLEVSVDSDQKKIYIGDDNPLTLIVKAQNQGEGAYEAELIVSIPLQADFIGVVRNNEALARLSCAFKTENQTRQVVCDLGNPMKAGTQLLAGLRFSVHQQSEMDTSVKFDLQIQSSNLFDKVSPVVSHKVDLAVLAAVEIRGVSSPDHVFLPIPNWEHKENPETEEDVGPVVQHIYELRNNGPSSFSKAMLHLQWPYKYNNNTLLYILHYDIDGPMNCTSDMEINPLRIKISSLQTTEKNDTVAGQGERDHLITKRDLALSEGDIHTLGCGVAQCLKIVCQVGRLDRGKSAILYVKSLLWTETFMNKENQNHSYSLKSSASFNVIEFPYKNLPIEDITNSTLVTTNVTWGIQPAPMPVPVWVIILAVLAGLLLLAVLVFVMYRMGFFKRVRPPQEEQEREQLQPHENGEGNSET
T1 sequence (P05106 27-788, chain 2 of 2): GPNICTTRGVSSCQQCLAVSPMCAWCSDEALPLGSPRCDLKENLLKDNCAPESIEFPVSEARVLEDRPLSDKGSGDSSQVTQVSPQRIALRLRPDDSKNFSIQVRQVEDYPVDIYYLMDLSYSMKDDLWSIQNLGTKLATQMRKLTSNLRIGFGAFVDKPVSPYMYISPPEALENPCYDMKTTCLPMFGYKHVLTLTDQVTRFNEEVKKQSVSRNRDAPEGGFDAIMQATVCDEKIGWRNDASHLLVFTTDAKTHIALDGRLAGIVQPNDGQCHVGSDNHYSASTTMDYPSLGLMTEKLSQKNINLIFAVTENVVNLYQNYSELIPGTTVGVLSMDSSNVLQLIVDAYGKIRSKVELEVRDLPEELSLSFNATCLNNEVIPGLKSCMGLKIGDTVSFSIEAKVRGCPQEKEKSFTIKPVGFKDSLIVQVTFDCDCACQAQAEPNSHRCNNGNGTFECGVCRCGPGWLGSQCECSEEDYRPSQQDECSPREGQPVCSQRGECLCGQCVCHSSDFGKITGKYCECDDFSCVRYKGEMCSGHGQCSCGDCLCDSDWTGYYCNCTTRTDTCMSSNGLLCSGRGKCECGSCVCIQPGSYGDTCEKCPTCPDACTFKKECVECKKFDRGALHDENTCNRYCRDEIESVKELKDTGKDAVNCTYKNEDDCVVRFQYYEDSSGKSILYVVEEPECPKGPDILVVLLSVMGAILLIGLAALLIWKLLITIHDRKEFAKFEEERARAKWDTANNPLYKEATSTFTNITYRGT
Chain of αvβ3 integrin (Homo sapiens, UniProt P05106+P06756) (P06756 31-889 limits assumed): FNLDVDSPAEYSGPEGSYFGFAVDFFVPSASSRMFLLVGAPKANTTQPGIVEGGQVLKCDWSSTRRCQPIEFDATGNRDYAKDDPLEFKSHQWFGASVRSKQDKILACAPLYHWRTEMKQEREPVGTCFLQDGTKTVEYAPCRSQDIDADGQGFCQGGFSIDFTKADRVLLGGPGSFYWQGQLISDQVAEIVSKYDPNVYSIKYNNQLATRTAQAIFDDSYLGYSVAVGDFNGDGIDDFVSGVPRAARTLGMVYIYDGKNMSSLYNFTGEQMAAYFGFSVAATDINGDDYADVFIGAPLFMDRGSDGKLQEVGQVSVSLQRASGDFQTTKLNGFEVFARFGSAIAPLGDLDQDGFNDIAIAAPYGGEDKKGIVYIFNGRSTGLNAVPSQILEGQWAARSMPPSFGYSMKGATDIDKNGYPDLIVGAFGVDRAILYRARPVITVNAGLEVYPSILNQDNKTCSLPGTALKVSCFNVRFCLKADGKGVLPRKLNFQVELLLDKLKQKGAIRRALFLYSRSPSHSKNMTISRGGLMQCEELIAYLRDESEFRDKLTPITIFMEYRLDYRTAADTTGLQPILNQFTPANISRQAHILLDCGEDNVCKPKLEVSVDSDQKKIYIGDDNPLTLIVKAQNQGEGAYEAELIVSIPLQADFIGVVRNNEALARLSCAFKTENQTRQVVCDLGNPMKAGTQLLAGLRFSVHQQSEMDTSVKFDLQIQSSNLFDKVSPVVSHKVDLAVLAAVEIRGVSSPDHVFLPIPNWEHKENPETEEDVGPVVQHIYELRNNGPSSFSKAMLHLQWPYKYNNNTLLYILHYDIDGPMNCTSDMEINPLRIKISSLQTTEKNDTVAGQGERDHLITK
Chain of αvβ3 integrin (Homo sapiens, UniProt P05106+P06756) (P06756 891-1048 partner limits assumed): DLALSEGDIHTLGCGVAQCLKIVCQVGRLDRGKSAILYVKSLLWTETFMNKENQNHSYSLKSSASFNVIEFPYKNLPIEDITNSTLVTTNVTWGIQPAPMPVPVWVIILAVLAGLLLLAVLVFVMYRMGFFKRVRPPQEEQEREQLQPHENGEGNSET
Chain of αvβ3 integrin (Homo sapiens, UniProt P05106+P06756) (P05106 27-788): as the sequence (P05106 27-788, chain 2 of 2) above

One test concerns the target αvβ3 integrin (Homo sapiens, UniProt P05106+P06756). Put plainly: Inhibition of biotinylated LXW7 binding to αvβ3-K562 cells (flow cytometry). Set-up: expressed in transfected cells; host or cells: K562 (gift of Dr. Yoshikazu Takada, UC Davis). As to conditions: LXW9-92: inhibiting the binding of biotinylated LXW7 against αvβ3-K562 cells, LXW7 as internal reference. How it is done:
The apparent IC50 were calculated using Graph Prism software (≦www.graphpad.com≧).
The samples were analyzed with Coulter XL-MCL flow cytometry. The histogram and mean fluorescence intensity (MFI) were determined. The apparent Kd, IC50 were calculated using Graph Prism software (≦www.graphpad.com≧).
In the case of `CN1CC(=O)N[C@@H](CCCNC(=N)N)C(=O)NCC(=O)N[C@@H](CC(=O)O)C(=O)N[C@H](CC(=O)O)C(=O)NC2(CCOCC2)C(=O)N[C@H](C(N)=O)CSSC[C@@H](N)C1=O` [LXY38, c-Sar-RGDd-Actp-C], the IC50 was over 20000 nM.

The same test, now with this note: LXW9-92: inhibiting the binding of biotinylated LXW7 against αvβ3-K562 cells; class symbols.
As to `CC(C)[C@H]1NC(=O)[C@@H](CC(=O)O)NC(=O)[C@H](CC(=O)O)NC(=O)CNC(=O)[C@H](CCCNC(=N)N)NC(=O)CNC(=O)[C@H](NC(=O)c2ccc3ccccc3c2)CSSC[C@H](C(N)=O)NC1=O` [LXW89, 2-naphthoyl-cGRGDdvc] (2Naphthoyl-[dC]GRGD[dD][dV][dC]-NH2; disulfide 1-8), the IC50 is under 1000 nM.

`CC(C)[C@H]1NC(=O)[C@@H](CC(=O)O)NC(=O)[C@H](CC(=O)O)NC(=O)CNC(=O)[C@H](CCCNC(=N)N)NC(=O)CNC(=O)[C@H](NC(=O)c2ccc(Br)o2)CSSC[C@H](C(N)=O)NC1=O` [LXW90, 5-bromo-2-furoyl-cGRGDdvc] (X4-[dC]GRGD[dD][dV][dC]-NH2; disulfide 1-8) returned an IC50 of 1000 to 10000 nM.

`CC(C)[C@H]1NC(=O)[C@@H](CC(=O)O)NC(=O)[C@H](CC(=O)O)NC(=O)CNC(=O)[C@H](CCCNC(=N)N)NC(=O)CNC(=O)[C@H](NC(=O)c2cccnc2)CSSC[C@H](C(N)=O)NC1=O` [LXW92, nicotinyl-cGRGDdvc] (Nicotinoyl-[dC]GRGD[dD][dV][dC]-NH2; disulfide 1-8) returned an IC50 of 1000 to 10000 nM.

Another test addresses T1, αvβ3 integrin (human, UniProt P06756 31-1048; P05106 27-788).
T1 construct: whole, on cells; Same entry used for αvβ3-K562, U-87 MG and A375M cells; also called αvβ3-K562; αvβ3 transfected K562 cells
Put plainly: flow cytometry, competition with biotinylated LXW7 on αvβ3-K562 cells; ++ = IC50 1-10 µM.
Conditions: not given
Consider B1, for which the IC50 is 1000 to 10000 nM.

As to B2, the IC50 is 1000 to 10000 nM.

The molecule B3 registered an IC50 of 1000 to 10000 nM.

As to B4, the IC50 fell in the range of 1000 to 10000 nM.

The molecule B5 registered an IC50 of 1000 to 10000 nM.

B6 returned an IC50 of 1000 to 10000 nM.

The molecule B7 had an IC50 of 1000 to 10000 nM.

With B8, the half-maximal inhibitory concentration (IC50) was in the range of 1000 to 10000 nM.

The molecule nicotinyl-[dC]GRGD[dD][dV][dC]-NH2 (disulfide 1-8) [LXW92] gave an IC50 of 1000 to 10000 nM.

For B9, the IC50 was 1000 to 10000 nM.

Consider {5‑bromo‑2‑furoyl}-[dC]GRGD[dD][dV][dC]-NH2 (disulfide 1-8) [LXW90], for which the IC50 is 1000 to 10000 nM.

Consider B10, for which the IC50 was 1000 to 10000 nM.

The molecule B11 had an IC50 of 1000 to 10000 nM.

As to B12, the concentration for half-maximal inhibition (IC50) fell in the range of 1000 to 10000 nM.

{p‑chlorophenyl acetyl}-[dC]GRGD[dD][dV][dC]-NH2 (disulfide 1-8) [LXW81] had an IC50 of 1000 to 10000 nM.

As for B13, the IC50 is 1000 to 10000 nM.

Regarding B14, the IC50 was in the range of 1000 to 10000 nM.

Regarding B15, the IC50 fell in the range of 1000 to 10000 nM.

The target in another test is T1, αvβ3 integrin. Put plainly: flow cytometry, competition with biotinylated LXW7 on αvβ3-K562 cells; +++ = IC50 <1 µM.
Conditions: not given
B16 had an IC50 of under 1000 nM.

B17 displayed an IC50 of under 1000 nM.

For the origin of these results see patent US9073974B2, “RGD-containing cyclic peptides” (The Regents of the University of California, priority 2009, dated 2015).
